± gives the uncertainty stated by the source.
B1: Far upstream element-binding protein 1, residues 184 to 257; numbered along this chain, Q96AE4 (parent)
chain: GNAVQEIMIPASKAGLVIGKGGETIKQLQERAGVKMVMIQDGPQNTGADKPLRITGDPYKVQQAKEMVLELIRD

Variants of: B1
Assay: abundance fitness (aPCA) (normalised: wild type 0, dead -1); higher = more abundant; growth selection in yeast, the domain comes from the species named
Settings: Homo sapiens

| Variant | abundance fitness |
| --- | --- |
| GNAVQEIMIPASKAGLVIGKGGETIKQLQERAGVKMVMIQDGPQNTGADKPLRITGDPYKVQRAKEMVLELIRD | -0.026 ± 0.026 |
| GNAVQEIMIPASKAGLVIGKGGETIKQLQERAGVKMVMIQDGPQNTGADKPLRITGDPYKVQTAKEMVLELIRD | -0.039 ± 0.033 |
| GNAVQEIMIPASKAGLVIGKGGETIKQLQERAGVKMVMIQDGPQNTGADKPLRITGDPYKVQVAKEMVLELIRD | -0.038 ± 0.031 |
| GNAVQEIMIPASKAGLVIGKGGETIKQLQERAGVKMVMIQDGPQNTGADKPLRITGDPYKVQSAKEMVLELIRD | -0.061 ± 0.03 |
| GNAVQEIMIPASKAGLVIGKGGETIKQLQERAGVKMVMIQDGPQNTGADKPLRITGDPYKVQYAKEMVLELIRD | -0.027 ± 0.05 |
| GNAVQEIMIPASKAGLVIGKGGETIKQLQERAGVKMVMIQDGPQNTGADKPLRITGDPYKVQQKKEMVLELIRD | -0.758 ± 0.053 |
| GNAVQEIMIPASKAGLVIGKGGETIKQLQERAGVKMVMIQDGPQNTGADKPLRITGDPYKVQQSKEMVLELIRD | -0.228 ± 0.031 |
| GNAVQEIMIPASKAGLVIGKGGETIKQLQERAGVKMVMIQDGPQNTGADKPLRITGDPYKVQQEKEMVLELIRD | -0.694 ± 0.041 |
| GNAVQEIMIPASKAGLVIGKGGETIKQLQERAGVKMVMIQDGPQNTGADKPLRITGDPYKVQQWKEMVLELIRD | -1.2 ± 0.07 |
| GNAVQEIMIPASKAGLVIGKGGETIKQLQERAGVKMVMIQDGPQNTGADKPLRITGDPYKVQQHKEMVLELIRD | -0.967 ± 0.086 |
| GNAVQEIMIPASKAGLVIGKGGETIKQLQERAGVKMVMIQDGPQNTGADKPLRITGDPYKVQQQKEMVLELIRD | -0.695 ± 0.049 |
| GNAVQEIMIPASKAGLVIGKGGETIKQLQERAGVKMVMIQDGPQNTGADKPLRITGDPYKVQQLKEMVLELIRD | -0.839 ± 0.043 |
| GNAVQEIMIPASKAGLVIGKGGETIKQLQERAGVKMVMIQDGPQNTGADKPLRITGDPYKVQQRKEMVLELIRD | -0.853 ± 0.035 |
| GNAVQEIMIPASKAGLVIGKGGETIKQLQERAGVKMVMIQDGPQNTGADKPLRITGDPYKVQQNKEMVLELIRD | -0.772 ± 0.073 |
| GNAVQEIMIPASKAGLVIGKGGETIKQLQERAGVKMVMIQDGPQNTGADKPLRITGDPYKVQQIKEMVLELIRD | -0.561 ± 0.054 |
| GNAVQEIMIPASKAGLVIGKGGETIKQLQERAGVKMVMIQDGPQNTGADKPLRITGDPYKVQQCKEMVLELIRD | -0.118 ± 0.042 |
| GNAVQEIMIPASKAGLVIGKGGETIKQLQERAGVKMVMIQDGPQNTGADKPLRITGDPYKVQQMKEMVLELIRD | -0.469 ± 0.042 |
| GNAVQEIMIPASKAGLVIGKGGETIKQLQERAGVKMVMIQDGPQNTGADKPLRITGDPYKVQQPKEMVLELIRD | -0.784 ± 0.048 |
| GNAVQEIMIPASKAGLVIGKGGETIKQLQERAGVKMVMIQDGPQNTGADKPLRITGDPYKVQQGKEMVLELIRD | -0.051 ± 0.027 |
| GNAVQEIMIPASKAGLVIGKGGETIKQLQERAGVKMVMIQDGPQNTGADKPLRITGDPYKVQQTKEMVLELIRD | -0.296 ± 0.037 |
| GNAVQEIMIPASKAGLVIGKGGETIKQLQERAGVKMVMIQDGPQNTGADKPLRITGDPYKVQQYKEMVLELIRD | -0.98 ± 0.11 |
| GNAVQEIMIPASKAGLVIGKGGETIKQLQERAGVKMVMIQDGPQNTGADKPLRITGDPYKVQQFKEMVLELIRD | -0.754 ± 0.064 |
| GNAVQEIMIPASKAGLVIGKGGETIKQLQERAGVKMVMIQDGPQNTGADKPLRITGDPYKVQQDKEMVLELIRD | -0.725 ± 0.059 |
| GNAVQEIMIPASKAGLVIGKGGETIKQLQERAGVKMVMIQDGPQNTGADKPLRITGDPYKVQQVKEMVLELIRD | -0.262 ± 0.032 |
| GNAVQEIMIPASKAGLVIGKGGETIKQLQERAGVKMVMIQDGPQNTGADKPLRITGDPYKVQQAKIMVLELIRD | -0.224 ± 0.048 |

| Variant | abundance fitness |
| --- | --- |
| GNAVQEIMIPASKAGLVIGKGGETIKQLQERAGVKMVMIQDGPQNTGADKPLRITGDPYKVQQAKKMVLELIRD | -0.007 ± 0.032 |
| GNAVQEIMIPASKAGLVIGKGGETIKQLQERAGVKMVMIQDGPQNTGADKPLRITGDPYKVQQAKVMVLELIRD | -0.072 ± 0.03 |
| GNAVQEIMIPASKAGLVIGKGGETIKQLQERAGVKMVMIQDGPQNTGADKPLRITGDPYKVQQAKDMVLELIRD | -0.002 ± 0.037 |
| GNAVQEIMIPASKAGLVIGKGGETIKQLQERAGVKMVMIQDGPQNTGADKPLRITGDPYKVQQAKNMVLELIRD | -0.048 ± 0.043 |
| GNAVQEIMIPASKAGLVIGKGGETIKQLQERAGVKMVMIQDGPQNTGADKPLRITGDPYKVQQAKAMVLELIRD | -0.091 ± 0.032 |
| GNAVQEIMIPASKAGLVIGKGGETIKQLQERAGVKMVMIQDGPQNTGADKPLRITGDPYKVQQAKWMVLELIRD | -0.167 ± 0.032 |
| GNAVQEIMIPASKAGLVIGKGGETIKQLQERAGVKMVMIQDGPQNTGADKPLRITGDPYKVQQAKPMVLELIRD | -0.476 ± 0.049 |
| GNAVQEIMIPASKAGLVIGKGGETIKQLQERAGVKMVMIQDGPQNTGADKPLRITGDPYKVQQAKQMVLELIRD | -0.07 ± 0.036 |
| GNAVQEIMIPASKAGLVIGKGGETIKQLQERAGVKMVMIQDGPQNTGADKPLRITGDPYKVQQAKLMVLELIRD | -0.092 ± 0.032 |
| GNAVQEIMIPASKAGLVIGKGGETIKQLQERAGVKMVMIQDGPQNTGADKPLRITGDPYKVQQAKTMVLELIRD | -0.03 ± 0.034 |
| GNAVQEIMIPASKAGLVIGKGGETIKQLQERAGVKMVMIQDGPQNTGADKPLRITGDPYKVQQAKGMVLELIRD | -0.046 ± 0.027 |
| GNAVQEIMIPASKAGLVIGKGGETIKQLQERAGVKMVMIQDGPQNTGADKPLRITGDPYKVQQAKMMVLELIRD | -0.08 ± 0.036 |
| GNAVQEIMIPASKAGLVIGKGGETIKQLQERAGVKMVMIQDGPQNTGADKPLRITGDPYKVQQAKHMVLELIRD | -0.165 ± 0.051 |
| GNAVQEIMIPASKAGLVIGKGGETIKQLQERAGVKMVMIQDGPQNTGADKPLRITGDPYKVQQAKRMVLELIRD | -0.081 ± 0.026 |
| GNAVQEIMIPASKAGLVIGKGGETIKQLQERAGVKMVMIQDGPQNTGADKPLRITGDPYKVQQAKCMVLELIRD | -0.106 ± 0.039 |
| GNAVQEIMIPASKAGLVIGKGGETIKQLQERAGVKMVMIQDGPQNTGADKPLRITGDPYKVQQAKFMVLELIRD | -0.18 ± 0.046 |
| GNAVQEIMIPASKAGLVIGKGGETIKQLQERAGVKMVMIQDGPQNTGADKPLRITGDPYKVQQAKERVLELIRD | -0.096 ± 0.026 |
| GNAVQEIMIPASKAGLVIGKGGETIKQLQERAGVKMVMIQDGPQNTGADKPLRITGDPYKVQQAKESVLELIRD | -0.078 ± 0.031 |
| GNAVQEIMIPASKAGLVIGKGGETIKQLQERAGVKMVMIQDGPQNTGADKPLRITGDPYKVQQAKEEVLELIRD | -0.082 ± 0.035 |
| GNAVQEIMIPASKAGLVIGKGGETIKQLQERAGVKMVMIQDGPQNTGADKPLRITGDPYKVQQAKECVLELIRD | -0.187 ± 0.04 |
| GNAVQEIMIPASKAGLVIGKGGETIKQLQERAGVKMVMIQDGPQNTGADKPLRITGDPYKVQQAKEQVLELIRD | -0.067 ± 0.039 |
| GNAVQEIMIPASKAGLVIGKGGETIKQLQERAGVKMVMIQDGPQNTGADKPLRITGDPYKVQQAKEPVLELIRD | -0.455 ± 0.04 |
| GNAVQEIMIPASKAGLVIGKGGETIKQLQERAGVKMVMIQDGPQNTGADKPLRITGDPYKVQQAKETVLELIRD | -0.116 ± 0.035 |
| GNAVQEIMIPASKAGLVIGKGGETIKQLQERAGVKMVMIQDGPQNTGADKPLRITGDPYKVQQAKEFVLELIRD | -0.117 ± 0.045 |
| GNAVQEIMIPASKAGLVIGKGGETIKQLQERAGVKMVMIQDGPQNTGADKPLRITGDPYKVQQAKEKVLELIRD | -0.111 ± 0.039 |

| Variant | abundance fitness |
| --- | --- |
| GNAVQEIMIPASKAGLVIGKGGETIKQLQERAGVKMVMIQDGPQNTGADKPLRITGDPYKVQQAKEDVLELIRD | -0.075 ± 0.042 |
| GNAVQEIMIPASKAGLVIGKGGETIKQLQERAGVKMVMIQDGPQNTGADKPLRITGDPYKVQQAKELVLELIRD | -0.053 ± 0.029 |
| GNAVQEIMIPASKAGLVIGKGGETIKQLQERAGVKMVMIQDGPQNTGADKPLRITGDPYKVQQAKEGVLELIRD | -0.177 ± 0.028 |
| GNAVQEIMIPASKAGLVIGKGGETIKQLQERAGVKMVMIQDGPQNTGADKPLRITGDPYKVQQAKEIVLELIRD | -0.128 ± 0.051 |
| GNAVQEIMIPASKAGLVIGKGGETIKQLQERAGVKMVMIQDGPQNTGADKPLRITGDPYKVQQAKEAVLELIRD | -0.03 ± 0.031 |
| GNAVQEIMIPASKAGLVIGKGGETIKQLQERAGVKMVMIQDGPQNTGADKPLRITGDPYKVQQAKEHVLELIRD | -0.078 ± 0.047 |
| GNAVQEIMIPASKAGLVIGKGGETIKQLQERAGVKMVMIQDGPQNTGADKPLRITGDPYKVQQAKENVLELIRD | -0.073 ± 0.051 |
| GNAVQEIMIPASKAGLVIGKGGETIKQLQERAGVKMVMIQDGPQNTGADKPLRITGDPYKVQQAFEMVLELIRD | -0.241 ± 0.049 |
| GNAVQEIMIPASKAGLVIGKGGETIKQLQERAGVKMVMIQDGPQNTGADKPLRITGDPYKVQQAMEMVLELIRD | -0.07 ± 0.038 |
| GNAVQEIMIPASKAGLVIGKGGETIKQLQERAGVKMVMIQDGPQNTGADKPLRITGDPYKVQQAWEMVLELIRD | -0.439 ± 0.038 |
| GNAVQEIMIPASKAGLVIGKGGETIKQLQERAGVKMVMIQDGPQNTGADKPLRITGDPYKVQQANEMVLELIRD | -0.129 ± 0.046 |
| GNAVQEIMIPASKAGLVIGKGGETIKQLQERAGVKMVMIQDGPQNTGADKPLRITGDPYKVQQALEMVLELIRD | -0.211 ± 0.03 |
| GNAVQEIMIPASKAGLVIGKGGETIKQLQERAGVKMVMIQDGPQNTGADKPLRITGDPYKVQQAHEMVLELIRD | -0.056 ± 0.047 |
| GNAVQEIMIPASKAGLVIGKGGETIKQLQERAGVKMVMIQDGPQNTGADKPLRITGDPYKVQQAAEMVLELIRD | -0.064 ± 0.032 |
| GNAVQEIMIPASKAGLVIGKGGETIKQLQERAGVKMVMIQDGPQNTGADKPLRITGDPYKVQQAYEMVLELIRD | -0.11 ± 0.054 |
| GNAVQEIMIPASKAGLVIGKGGETIKQLQERAGVKMVMIQDGPQNTGADKPLRITGDPYKVQQAREMVLELIRD | -0.012 ± 0.027 |
| GNAVQEIMIPASKAGLVIGKGGETIKQLQERAGVKMVMIQDGPQNTGADKPLRITGDPYKVQQASEMVLELIRD | -0.102 ± 0.03 |
| GNAVQEIMIPASKAGLVIGKGGETIKQLQERAGVKMVMIQDGPQNTGADKPLRITGDPYKVQQATEMVLELIRD | -0.057 ± 0.034 |
| GNAVQEIMIPASKAGLVIGKGGETIKQLQERAGVKMVMIQDGPQNTGADKPLRITGDPYKVQQAPEMVLELIRD | -0.709 ± 0.043 |
| GNAVQEIMIPASKAGLVIGKGGETIKQLQERAGVKMVMIQDGPQNTGADKPLRITGDPYKVQQACEMVLELIRD | -0.097 ± 0.04 |
| GNAVQEIMIPASKAGLVIGKGGETIKQLQERAGVKMVMIQDGPQNTGADKPLRITGDPYKVQQADEMVLELIRD | -0.577 ± 0.056 |
| GNAVQEIMIPASKAGLVIGKGGETIKQLQERAGVKMVMIQDGPQNTGADKPLRITGDPYKVQQAGEMVLELIRD | -0.086 ± 0.028 |
| GNAVQEIMIPASKAGLVIGKGGETIKQLQERAGVKMVMIQDGPQNTGADKPLRITGDPYKVQQAVEMVLELIRD | -0.037 ± 0.031 |
| GNAVQEIMIPASKAGLVIGKGGETIKQLQERAGVKMVMIQDGPQNTGADKPLRITGDPYKVQQAIEMVLELIRD | -0.049 ± 0.048 |

From the Human Domainome abundance scans (Beltran et al. 2025)
